B1: GsHPPD-02: native Gossypium hirsutum HPPD, SEQ ID NO: 33 (protein, listed as Gossypium hirsutum)
chain: MVQTNQSGSGNDFKLVGFSNFVRSNPKSDRFTVKRFHHIEFWCTDATNVARRFSWGLGMQFVAKSDLSTGNLTHASYLLRSRDLNFLFTAPYSPSIAVAQNLSPQSTASIPSFDHSLCRSFAATHGLGVRAIAIEVDDAETAFTTSVTHGALPFCPPTPLGDVATIAEVKLYGDVVLRYVSYTTTINSDHDFLPGFEKIEDTLSYPLDYGLRRLDHAVGNVPELGPAVSYVKSFTGFHEFAEFTAEDVGTSESGLNSVVLANNEEMVLLPMNEPVFGTKRKSQIQTYLEHNEGAGVQHLALVSEDIFKTLREMRKRSFVGGFEFMPSPPPTYYKKLKQRAGDILSDEQIKECEELGILVDRDDQGTLLQIFTKPVGDRPTIFIEIIQRIGCMVKDEEGKQYQKGGCGGFGKGNFSELFKSIEEYEKSLEAKQSQNP
modifications: GsHPPD Amino Acid Sequence
B2: GsHPPDm-F372A-02: Gossypium hirsutum HPPD mutant F372A, SEQ ID NO: 36 (protein)
chain: B1 chain with F371A
modifications: GsHPPDm-F372A Amino Acid Sequence
B3: CaHPPD-02: native Cicer arietinum HPPD, SEQ ID NO: 81 (protein, listed as Cicer arietinum)
chain: MGTIETQTGFKLVGFNNFVRTNPKSDRFKVKRFHHVEFWCPDATNTARRFSWGLGMPIVAKSDLSTGNQTHASYLLRSGDLNFLFTAAYSPSISLSAPHPTASIPSFSAPTSFAFSASHGLGVRAVAIEVDDAEFAYTTSVNHGAIPSSPPVVLDNRVKLAEVQLYGDVVLRYVSYNDPIETSNPNPNHWFLPGFEPVEETSSNQSIDFGIQRLDHAVGNVPELSSALNYVKQFTGFHEFAEFTAEDVGTSESGLNSTVLANNEETVLLPMNEPVYGTKRKSQIQTYLEHNEGAGLQHLALMSNDIFKTLREMRKRSGIGGFEFMPSPPPTYYSNLKKRVGDVLNDEQIKECEELGILVDKDDQGTLLQIFTKPVGDRPTIFIEIIQRVGCMLKDDEGKEYQKGGCGGFGKGNFSELFKSIEEYEKTLEIKRTA
modifications: CaHPPD Amino Acid Sequence
B4: GmHPPD-02: native Glycine max HPPD, SEQ ID NO: 75 (protein)
chain: MPMYTPSLSAPSSNHIQPSVTLPLYITTTKLNLKQQHHTTPMPIPMCNEIQAQAQAQAQPGFKLVGFKNFVRTNPKSDRFQVNRFHHIEFWCTDATNASRRFSWGLGMPIVAKSDLSTGNQIHASYLLRSGDLSFLFSAPYSPSLSAGSSAASSASIPSFDAATCLAFAAKHGFGVRAIALEVADAEAAFSASVAKGAEPASPPVLVDDRTGFAEVRLYGDVVLRYVSYKDAAPQAPHADPSRWFLPGFEAAASSSSFPELDYGIRRLDHAVGNVPELAPAVRYLKGFSGFHEFAEFTAEDVGTSESGLNSVVLANNSETVLLPLNEPVYGTKRKSQIETYLEHNEGAGVQHLALVTHDIFTTLREMRKRSFLGGFEFMPSPPPTYYANLHNRAADVLTVDQIKQCEELGILVDRDDQGTLLQIFTKPVGDRPTIFIEIIQRIGCMVEDEEGKVYQKGACGGFGKGNFSELFKSIEEYEKTLEAKRTA
modifications: Glycine max; GmHPPD Amino Acid Sequence
B5: GmHPPDm-F372A-02: Glycine max HPPD mutant F372A, SEQ ID NO: 78 (protein)
chain: B4 chain with F425A
modifications: GmHPPDm-F372A Amino Acid Sequence

Changes are numbered by the printed parent chain. Names may count otherwise.

One assay has as its system Arabidopsis thaliana T1 plants. Description: Topramezone tolerance of transgenic Arabidopsis thaliana T1 plants (pesticide damage grade by bleached leaf area, score, resistance evaluation). The assay is classed as in vivo. As to conditions: HPPDs from different species; number of plants (of 16) in this grade; topramezone 25 g ai/ha (1x), 7 DAT. Summed up:
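Herbicide tolerance was judged per plant on a bleaching scale (grade 0 no bleaching to grade 3 fully bleached) 7 DAT. Topramezone doses were 0, 25, 50 and 100 g ai/ha on 18-day-old T1 and wild-type plants.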
Regarding B1, the “Classification and statistics of pesticide damage grade Grade 0” value worked out at 0; the “Classification and statistics of pesticide damage grade Grade 1” value came out at 0; the “Classification and statistics of pesticide damage grade Grade 2” value is 0; the “Classification and statistics of pesticide damage grade Grade 3” value stood at 16.
In the case of B2, the “Classification and statistics of pesticide damage grade Grade 0” value was found to be 16; the “Classification and statistics of pesticide damage grade Grade 1” value stood at 0; the “Classification and statistics of pesticide damage grade Grade 2” value is given as 0; the “Classification and statistics of pesticide damage grade Grade 3” value was determined as 0.
As for B3, the “Classification and statistics of pesticide damage grade Grade 0” value is listed as 0; the “Classification and statistics of pesticide damage grade Grade 1” value is 0; the “Classification and statistics of pesticide damage grade Grade 2” value is on record as 0; the “Classification and statistics of pesticide damage grade Grade 3” value turned out to be 16.
Take B4: the “Classification and statistics of pesticide damage grade Grade 0” value was 0; the “Classification and statistics of pesticide damage grade Grade 1” value is 0; the “Classification and statistics of pesticide damage grade Grade 2” value worked out at 0; the “Classification and statistics of pesticide damage grade Grade 3” value is reported as 16.
B5: the “Classification and statistics of pesticide damage grade Grade 0” value was found to be 0; the “Classification and statistics of pesticide damage grade Grade 1” value was determined as 12; the “Classification and statistics of pesticide damage grade Grade 2” value came out at 4; the “Classification and statistics of pesticide damage grade Grade 3” value is 0.

The same assay, now with this note: HPPDs from different species; number of plants (of 16) in this grade; topramezone 100 g ai/ha (4x), 7 DAT.
Take B1: the “Classification and statistics of pesticide damage grade Grade 0” value was found to be 0; the “Classification and statistics of pesticide damage grade Grade 1” value is 0; the “Classification and statistics of pesticide damage grade Grade 2” value worked out at 0; the “Classification and statistics of pesticide damage grade Grade 3” value stood at 16.
As for B2, the “Classification and statistics of pesticide damage grade Grade 0” value came out at 0; the “Classification and statistics of pesticide damage grade Grade 1” value was found to be 0; the “Classification and statistics of pesticide damage grade Grade 2” value is on record as 0; the “Classification and statistics of pesticide damage grade Grade 3” value is 16.
Consider B3, for which the “Classification and statistics of pesticide damage grade Grade 0” value stood at 0; the “Classification and statistics of pesticide damage grade Grade 1” value is 0; the “Classification and statistics of pesticide damage grade Grade 2” value was 0; the “Classification and statistics of pesticide damage grade Grade 3” value was found to be 16.
Take B4: the “Classification and statistics of pesticide damage grade Grade 0” value was 0; the “Classification and statistics of pesticide damage grade Grade 1” value is 0; the “Classification and statistics of pesticide damage grade Grade 2” value is 0; the “Classification and statistics of pesticide damage grade Grade 3” value was found to be 16.
For B5, the “Classification and statistics of pesticide damage grade Grade 0” value was determined as 0; the “Classification and statistics of pesticide damage grade Grade 1” value is on record as 0; the “Classification and statistics of pesticide damage grade Grade 2” value is on record as 0; the “Classification and statistics of pesticide damage grade Grade 3” value worked out at 16.

Staying with this assay, now noted: HPPDs from different species; score for pesticide damage 0-100; topramezone 25 g ai/ha (1x), 7 DAT.
Consider B1, for which the Scores came to 100.
On the same count and under the same terms, the value for B2 was 0.
B3 showed a Scores of 100.
On the same count and under the same terms, the result for B4 reads 100; that for B5, 42.

The same assay, now with this note: HPPDs from different species; score for pesticide damage 0-100; topramezone 100 g ai/ha (4x), 7 DAT.
On to B1, for which the Scores was found to be 100.
On the same count and under the same terms, the value for B2 was 100; that for B3 was 100; that for B4 was 100.
Still for that read-out and setting: the value for B5 was 100.

The same assay, now with this note: HPPDs from different species; topramezone 25 g ai/ha (1x), 7 DAT.
For the molecule B1, the Resistance evaluation entry was “non-resistant (non-resistant plants (scores 68-100))”.
Still for that read-out and setting: the result for B2 reads “highly resistant (highly resistant plants (scores 0-15))”; that for B3, “non-resistant (non-resistant plants (scores 68-100))”; that for B4, “non-resistant (non-resistant plants (scores 68-100))”.
The same measure, in the same setting: the result for B5 reads “poorly resistant (poorly resistant plants (scores 34-67))”.

Still in this assay, the particulars now being: HPPDs from different species; topramezone 100 g ai/ha (4x), 7 DAT.
B1: the Resistance evaluation result was “non-resistant (non-resistant plants (scores 68-100))”.
With B2, the Resistance evaluation result is recorded as “non-resistant (non-resistant plants (scores 68-100))”.
The same measure, in the same setting: the result for B3 reads “non-resistant (non-resistant plants (scores 68-100))”; that for B4, “non-resistant (non-resistant plants (scores 68-100))”.
Same read-out and setting: the result for B5 reads “non-resistant (non-resistant plants (scores 68-100))”.

The record behind these values is patent publication US20230212587A1, “Mutant Hydroxyphenylpyruvate Dioxygenase Polypeptide, Encoding Gene Thereof and Use Therefor” (Beijing Dabeinong Biotechnology Co., Ltd., priority 2019, published 2023).
